The record followed here is patent publication US20260070974A1 (NONA BIOSCIENCES SUZHOU, published 2026).

Where “and” joins values, the source holds several entries; their conditions need not be identical. Identical values can stand only once.

The target in experiment [1] is T1, cynomolgus monkey Siglec-15 on CHO-K1/cynomolgus monkey Siglec-15 cells (cynomolgus monkey, UniProt Q6ZMC9 20-328 (human entry)).
T1 chain: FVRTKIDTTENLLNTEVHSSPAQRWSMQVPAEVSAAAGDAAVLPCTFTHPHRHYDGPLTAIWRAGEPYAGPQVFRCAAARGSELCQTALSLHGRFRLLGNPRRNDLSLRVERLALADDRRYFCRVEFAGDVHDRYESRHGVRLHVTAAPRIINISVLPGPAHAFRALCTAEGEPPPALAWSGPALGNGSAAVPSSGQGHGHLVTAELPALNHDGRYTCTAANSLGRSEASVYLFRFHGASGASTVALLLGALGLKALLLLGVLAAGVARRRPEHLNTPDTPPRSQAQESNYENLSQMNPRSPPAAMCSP
The experiment can be described thus: flow cytometry on CHO-K1/cynomolgus monkey Siglec-15 cells. On the procedure:
cDNAs encoding cynomolgus monkey Siglec-15 (the amino acid sequence of which is set forth in SEQ ID NO: 155) were obtained by gene synthesis and cloned into the expression vector pcDNA3.1, and then the expression vector was transfected into CHO-K1 cells to construct CHO-K1/cynomolgus monkey Siglec-15 cells expressing cynomolgus monkey Siglec-15. CHO-K1/cynomolgus monkey Siglec-15 cells were adjusted to a density of 1×10⁶/mL with PBS, and the cell suspension was added to a 96-well V-bottom plate at 100 µL/well. The 96-well V-bottom plate was centrifuged at 1000 rpm for 5 min and washed once with PBS+2% FBS. The cells were resuspended in 100 μL of antibody diluted in a gradient (5-fold dilution, starting concentration: 500 nM) and incubated at 4° C. for 1 h, and PR300066 and hIgG1 were used as positive control and negative control, respectively. After 1 h, the cells were washed twice with PBS+2% FBS. The cells were incubated with 100 μL of Alexa Fluor 488 goat anti-human IgG (Jackson, Cat #: 109-545-098) at 4° C. for 1 h in the dark and then washed twice with PBS+2% FBS. The cells were then resuspended in 200 μL of PBS+2% FBS. The fluorescence intensity of the cells was analyzed using a BD FACS Canto™ II flow cytometer.

In experiment [2] the target is T2, human Siglec-15 on CHO-K1/human Siglec-15 cells (KYinno, Beijing) (human, UniProt Q6ZMC9 20-328).
T2 sequence: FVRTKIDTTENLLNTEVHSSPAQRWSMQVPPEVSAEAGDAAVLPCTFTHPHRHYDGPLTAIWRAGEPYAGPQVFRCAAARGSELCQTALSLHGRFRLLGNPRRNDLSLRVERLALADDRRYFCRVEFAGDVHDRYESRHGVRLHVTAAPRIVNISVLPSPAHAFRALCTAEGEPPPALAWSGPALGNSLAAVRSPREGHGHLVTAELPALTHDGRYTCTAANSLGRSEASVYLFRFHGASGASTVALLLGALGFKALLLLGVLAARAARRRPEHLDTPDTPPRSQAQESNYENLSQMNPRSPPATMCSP
The experiment can be described thus: flow cytometry on CHO-K1/human Siglec-15 cells. On the procedure: CHO-K1/human Siglec-15 cells (KYinno, Beijing) were adjusted to a density of 1×10⁶/mL with PBS, and the cell suspension was added to a 96-well V-bottom plate at 100 μL/well. The 96-well V-bottom plate was centrifuged at 1000 rpm for 5 min and washed once with PBS+2% FBS. The cells were resuspended in […] of antibody diluted in a gradient (5-fold dilution, starting concentration: 500 nM) and incubated at 4° C. for 1 h, and PR300066 and hIgG1 were used as positive control and negative control, respectively. After 1 h, the cells were washed twice with PBS+2% FBS. The cells were incubated with 100 μL of Alexa Fluor 488 goat anti-human IgG (Jackson, Cat #: 109-545-098) at 4° C. for 1 h in the dark and then washed twice with PBS+2% FBS. The cells were then resuspended in 200 μL of PBS+2% FBS. The fluorescence intensity of the cells was analyzed using a BD FACSCanto™ II flow cytometer.
On the technique in general: A flow cytometer gives signals particle by particle.

The target in experiment [3] is T3, human PD-L1/B7-H1-his protein (Acrobiosystems, Cat PD1-H5229) (human, UniProt Q9NZQ7 19-238).
T3 construct: Bought protein; not shown: his tag
T3 sequence (Q9NZQ7 19-238 limits assumed): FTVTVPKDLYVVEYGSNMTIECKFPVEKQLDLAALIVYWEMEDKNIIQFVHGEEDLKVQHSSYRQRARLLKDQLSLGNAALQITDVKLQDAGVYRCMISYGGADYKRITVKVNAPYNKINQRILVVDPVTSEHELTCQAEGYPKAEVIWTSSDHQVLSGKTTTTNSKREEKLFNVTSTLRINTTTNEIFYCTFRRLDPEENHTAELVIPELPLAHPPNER
The experiment can be described thus: ELISA on coated human PD-L1/B7-H1-his, antibody at 100 nM and 10 nM, goat anti-human IgG-HRP, OD450. The protocol: Human Siglec-15 ECD-his protein (Acrobiosystems, Cat SG5-H52H3), human Siglec-2-his protein (Acrobiosystems, Cat CD2-H52H8), human Siglec-4a-his protein (Acrobiosystems, Cat MAG-H52H8), human Siglec-3-his protein (Acrobiosystems, Cat CD3-H5226), human Siglec-10-his protein (Acrobiosystems, Cat SIO-H52H9), and human PD-L1/B7-H1-his protein (Acrobiosystems, Cat PD1-H5229), each at 1 μg/mL and dissolved in PBS, were each added to an ELISA plate at 100 μL/well for coating and the plate was incubated overnight at 4° C. The ELISA plate was then blocked with PBST (PBS+0.05% Tween 20) containing 2% BSA at 200 μL/well and incubated at 37° C. for 1 h. The ELISA plate was washed 4 times with PBST. The anti-Siglec-15 antibody diluted in a gradient (concentrations: 100 nM and 10 nM) was added to the ELISA plate at 100 μL/well and the plate was incubated at 37° C. for 1 h. The ELISA plate was washed 4 times with PBST. The goat anti-human IgG (H+L)-HRP (1:5000, Jackson, Cat 109-035-088) was added at 100 μL/well and the plate was incubated at 37° C. for 1 h. The ELISA plate was washed 4 times with PBST. The TMB substrate (Biopanda, Cat TMB-S-003) was added at 100 μL/well, and the plate was incubated at room temperature for 5 min, and then the stop buffer (Solarbio, Cat #: C1058) was added at 100 μL/well to stop the reaction.
A general note: In an ELISA, binding on a coated surface is turned into a signal by an enzyme label.

In general, EC50 refers to the concentration needed to bring the measured effect to its halfway point.

B1: PR301285 (antibody, human IgG1, kappa, V domains shown)
VH: QVQLQESGPGLVKPSETLSLTCTVSGGSMISYYWSWLRQPPGKGLEWIGYIYYSGNTNYNPSLKSRITIAVDTSKNQFSLKLNSVTAADTAVYYCARERELHPYYFDYWGQGTLVTVSS
VL: DIQLTQSPSFLSASVGDRVTITCRASQGIDNYLAWYQQKPGKAPKVLIYAASTLQSGVPSRFSGSGSGTEFTLTISSLQPEDFATYYCQQLNSYPLTFGGGTKVEIKR
Consider B1, for which the figures for the EC50 in experiment [1] and in experiment [2] were 0.889 nM and 0.553 nM, respectively. Also, the entries for the “Maximum (MFI)” value in experiment [1] and in experiment [2] were 5660 MFI and 20300 MFI, respectively. Further, the binding result in experiment [3] is recorded as “no binding (tested: 100 nM)”.

B2: PR301286 (antibody, human IgG1, kappa, V domains shown)
VH: QVQLVESGGGVVQPGKSLRLSCAASGFTFSSYGMHWVRQAPGKGLEWVAVIWIDGSNRYYAASVKGRFTISRDNSKNTLYLQMNSLRAEDTAVYYCTRGYGDYAYVMDVWGQGASVTVSS
VL: DIVMTQSPLSLPVTPGEPASISCRSSQSLLPGNGYNYLDWYLQKPGQSPQLLIYLGSNRASGVPDRFSGSGSGTDFTLKISRVEAEDVGIYYCMQALQSPLTFGGGTKVEIKR
notes: Parent of the PTM variants PR301286-1, -3, -5, -6, -7
For B2, in experiment [1], it took 3.39 nM to reach a half-maximal effect (EC50) and the “Maximum (MFI)” value was 5860 MFI. Also, in experiment [2], a half-maximal response (EC50) required 1.98 nM and the “Maximum (MFI)” value stood at 24200 MFI. For the same molecule, the binding result in experiment [3] is listed as “no binding (tested: 100 nM)”.

B3: PR300066 (Tab) (antibody, human IgG1, kappa, V domains shown)
VH: QVQLQQPGAELVKPGASVKMSCKASGYTFTSYWITWVIQRPGQGLEWIGDIYCGSDTMHYNEKFKNKATLTVDTSSSTAYMQLSSLTSEDSAVYYCARWWDYGSSYDYFDYWGQGTTLTVSS
VL: DIKMTQSPSSMYASLGERVTITCKASQDINSYLSWFQQKPGKSPKTLIYRANRLVDGVPSRFSGSGSGQDYSLTISSLEYEDMGIYYCLQYDEFPYTFGGGTKLEIKR
notes: variable region from clone 5G12 of WO 2018/057735A1, on human IgG1/kappa constant regions; also called 5G12
As to B3, the EC50 in experiment [1] was 1.5 nM and 2.19 nM; in experiment [2] it was 3.66 nM and 2.2 nM and 1.64 nM. In addition, in experiment [3], the binding result was “no binding (tested: 100 nM)”.

B4: PR301289 (antibody, human IgG1, kappa, V domains shown)
VH: QVQLVQSGAEVKKPGASVKVSCRASGYTFTSYDINWVRQATGQGLEWMGWMNPHSGDTGYAQNFQGRVTMTWNTSISTAYMELSSLRSEDTAVYYCARRRVGVYYYGMDVWGQGTTVTVSS
VL: ENVLTQSPGTLSLSPGERATLSCRASQSVSSSYFGWYQQKPGQAPRLLIYGASSRATGIPDRFSGSGSGTDFTLTISRLEPEDFAVYYCQQYGSSPITFGQGTRLEIKR
notes: Parent of the PTM variants PR301289-1 and -2
In the case of B4, in experiment [1], the 50% effective concentration (EC50) was found to be 1.36 nM and the “Maximum (MFI)” value is 5420 MFI. In experiment [2], it took 1.04 nM to reach a half-maximal effect (EC50) and the “Maximum (MFI)” value came to 29200 MFI. Further, the binding result in experiment [3] is “no binding (tested: 100 nM)”.
